Patent US11389485

Columns and labels:
[1] = target: CD33 variant having the fragment encoded by exon 2 deleted (CD33ex2) (human) (UniProt P20138); experiment: cell-based or functional assay
[2] = target: human CD33, full-length (CD33M) (human) (UniProt P20138); experiment: cell-based or functional assay

B1: gemtuzumab ozogamicin (antibody, INN chains, looked up, V domains shown)
VH: EVQLVQSGAEVKKPGSSVKVSCKASGYTITDSNIHWVRQAPGQSLEWIGYIYPYNGGTDYNQKFKNRATLTVDNPTNTAYMELSSLRSEDTAFYYCVNGNPWLAYWGQGTLVTVSS
VL: DIQLTQSPSTLSASVGDRVTITCRASESLDNYGIRFLTWFQQKPGKAPKLLMYAASNQGSGVPSRFSGSGSGTEFTLTISSLQPDDFATYYCQQTKEVPWSFGQGTKVEVKR
modifications: ozogamicin (calicheamicin) conjugate
[1]
  IC50 of GO cytotoxicity, HSPC CD33ex2: 0.246 µg/mL
[2]
  IC50 of GO cytotoxicity (viable cell number, Celltiter Glo, 72 h), HL-60 cells: 0.0355 µg/mL
  IC50 of GO cytotoxicity (viable cell number, Celltiter Glo, 72 h), THP-1 cells: 0.0163 µg/mL
  IC50 of GO cytotoxicity, wild-type HSPC: 0.0934 µg/mL
